The values that follow come from PMC8328229 (Methods in enzymology, 2021).

Primed or numbered codes have the meaning given here. Where no end group is shown, it is not given here. FITC′ = fluorescein

One test relates to MjYcaO. The settings on record: cited from earlier work.
For test [1], the target named is FITC-labeled M. acetivorans McrA 13-mer peptide (GG-…) (Methanosarcina acetivorans). Put plainly: fluorescence polarisation. Background: Polarisation of emitted light reports the rotation of a fluorescent probe.
Another test relates to M. acetivorans TfuA. As to conditions: FP; 25 °C, 1 h; ref Mahanta et al., 2018; cited from earlier work.
Test [2] deals with MBP-tagged Methanosarcina acetivorans YcaO (Methanosarcina acetivorans). Put plainly: fluorescence polarisation.
For test [3], the target named is T1, MBP-tagged Methanocaldococcus jannaschii YcaO (Methanocaldococcus jannaschii, UniProt Q58494 1-385).
T1 sequence (looked up): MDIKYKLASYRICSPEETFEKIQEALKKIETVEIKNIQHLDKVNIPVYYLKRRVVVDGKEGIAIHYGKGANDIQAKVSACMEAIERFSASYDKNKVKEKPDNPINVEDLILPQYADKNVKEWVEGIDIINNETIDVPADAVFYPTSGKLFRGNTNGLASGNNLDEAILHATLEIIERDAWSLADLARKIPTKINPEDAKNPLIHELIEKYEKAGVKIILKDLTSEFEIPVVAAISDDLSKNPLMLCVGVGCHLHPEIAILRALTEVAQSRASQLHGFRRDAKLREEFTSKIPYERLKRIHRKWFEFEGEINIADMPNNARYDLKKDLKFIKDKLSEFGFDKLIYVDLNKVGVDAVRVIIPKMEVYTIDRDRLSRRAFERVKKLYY
The test is described as follows: fluorescence polarisation.

On to `Nc1ncnc2c1ncn2[C@@H]1O[C@H](COP(=O)(O)OP(=O)(O)OP(=O)(O)O)[C@@H](O)[C@H]1O` [ATP], for which the “ATP-derived by-products of thioamidation” value with MjYcaO (31P NMR, YcaO-catalyzed thioamidation, ref Mahanta et al., 2018) was “ADP and phosphate (Pi) were found to be the by-products”. In the test with MjYcaO (absence of McrA peptide, ref Dong et al., 2019), the “ATP hydrolysis in the absence of the McrA peptide substrate” value was “YcaO can hydrolyze ATP to ADP and Pi unproductively”.
In the case of “MBP-tagged Methanosarcina acetivorans YcaO (enzyme)”, the dissociation constant Kd – broadly, the free concentration of one partner at which half of the binding sites on the other are occupied at equilibrium, for simple one-to-one binding – in test [1] is 700 nM.
For the molecule GG-RLGFFGFDLQD [native McrA peptide], the binding result in the test with M. acetivorans TfuA was “not detected”.
RLGFFGFDAQD [MBP-tagged McrA peptide, Ala substitution of Leu468] gave a fold reduction of affinity against the wild-type peptide in test [2] of 14 fold.
Same read-out and setting: the value for RLGFFAFDLQD [MBP-tagged McrA peptide, Ala substitution of Gly465] was 14 fold.
For the molecule {FITC′}-GGRLGFYGYDLQD [FITC-labeled M. jannaschii McrA 13-mer peptide (GG-RLGFYGYDLQD)], binding in test [3] was put at a Kd of 1100 nM.
On to RLGFFGFDLAD [MBP-tagged McrA peptide, Ala substitution of Gln469], for which the fold reduction of affinity against the wild-type peptide in test [2] came to 24 fold.
In the case of RLGFFGFDLQD [wild-type MBP-tagged McrA peptide (M. acetivorans McrA 11-mer)], the Ki – broadly, the dissociation constant of the complex between target and ligand, obtained from inhibition or displacement – in test [2] stood at 700 nM.
Molecule RLGFAGFDLQD [MBP-tagged McrA peptide, Ala substitution of Phe464] yielded a fold reduction of affinity against the wild-type peptide in test [2] of 11 fold.
On the same count and under the same terms, the value for RLAFFGFDLQD [MBP-tagged McrA peptide, Ala substitution of Gly462] was 14 fold.
Still for that read-out and setting: for RLGFFGFALQD [MBP-tagged McrA peptide, Ala substitution of Asp467] the value was 12 fold.
Take RAGFFGFDLQD [MBP-tagged McrA peptide, Ala substitution of Leu461]: in test [2], the fold reduction of affinity against the wild-type peptide was 28 fold.
